# Literature values as cited in patent US12514872B2, “Polycationic polymers for use in treating and detecting cancer” (Duke University, priority 2015, dated 2026).
# B1: DNAse I: enzyme used in a cited PC study to treat tumor cells associated with extracellular DNA (protein, UniProt P24855 23-282, looked up)
# Deoxyribonuclease-1: LKIAAFNIQTFGETKMSNATLVSYIVQILSRYDIALVQEVRDSHLTAVGKLLDNLNQDAPDTYHYVVSEPLGRNSYKERYLFVYRPDQVSAVDSYYYDDGCEPCGNDTFNREPAIVRFFSRFTEVREFAIVPLHAAPGDAVAEIDALYDVYLDVQEKWGLEDVMLMGDFNAGCSYVRPSQWSSIRLWTSPTFQWLIPDSADTTATPTHCAYDRIVVAGMLLRGAVVPDSALPFNFQAAYGLSDQLAQAISDHYPVEVMLK
# Assays:
# [1] = test system: RNA oligonucleotide coagulation-factor inhibitors (aptamers); details: previous work, WO2008/121354
# [2] = test system: orthotopic xenograft pancreatic tumors
# PC tumor cell lines = details: in vitro
molecule,measurement,setting,value
protamine sulfate,reversal of anticoagulant activity of aptamers,[1],reverse the anticoagulant activity
B1,tumor metastasis,[2],reduction in tumor metastasis
same,"cell invasion, migration and adhesion",PC tumor cell lines,"reduced cell invasion, migration, and adhesion"
